Results published in article PMC7253180, “A CLC-ec1 mutant reveals global conformational change and suggests a unifying mechanism for the CLC Cl^–/H^+ transport cycle” (eLife, 2020).

Legend:
[1] = target: the molecule itself; experiment: DEER spectroscopy; one MTSSL spin label per subunit, inter-subunit distance distributions; pH 7.5 and pH 4.5; 83 K, Q-band; four-pulse protocol (five-pulse for position 374)
[2] = target: the molecule itself; experiment: crystal structure; lipidic cubic phase (monoolein with 10% cholesterol), without any antibody Fab fragment; 100 mM Tris pH 8.5, 100 mM sodium malonate, 30% PEG 400, 2.5% MPD; 16°C

Protein	binding result [1]	binding result [2]
WT CLC-ec1 (cysteine-less background) D417C, spin-labeled (natural protein, E. coli, MTSSL spin label on the substituted cysteine at 417, CLC-ec1, prokaryotic (E. coli) CLC Cl-/H+ exchange transporter, from plasmid pASK-CLC-ec1; Helix P; source: purified under reducing conditions, then labeled with MTSSL) MKTDTPSLETPQAARLRRRQLIRQLLERDKTPLAILFMAAVVGTLVGLAAVAFDKGVAWLQNQRMGALVHTADNYPLLLTVAFLASAVLAMFGYFLVRKYAPEAGGSGIPEIEGALEDQRPVRWWRVLPVKFFGGLGTLGGGMVLGREGPTVQIGGNIGRMVLDIFRLKGDEARHTLLATGAAAGLAAAFNAPLAGILFIIEEMRPQFRYTLISIKAVFIGVIMSTIMYRIFNHEVALIDVGKLSDAPLNTLWLYLILGIIFGIFGPIFNKWVLGMQDLLHRVHGGNITKWVLMGGAIGGLAGLLGFVAPATSGGGFNLIPIATAGNFSMGMLVFIFVARVITTLLSFSSGAPGGIFAPMLALGTVLGTAFGMVAVELFPQYHLEAGTFAIAGMGALLAASIRAPLTGIILVLEMTCNYQLILPMIITGLGATLLAQFTGGKPLYSAILARTLAKQEAEQLARSK	binds	–
CLC-ec1 QQQ mutant (E148Q/E203Q/E113Q) (natural protein, E. coli, CLC-ec1, prokaryotic (E. coli) CLC Cl-/H+ exchange transporter, from plasmid pASK-CLC-ec1; Helix A (N-terminal) has no density in the model; also called ClC-ec1 triple mutant (E113Q, E148Q, E203Q)) MKTDTPSLETPQAARLRRRQLIRQLLERDKTPLAILFMAAVVGTLVGLAAVAFDKGVAWLQNQRMGALVHTADNYPLLLTVAFLCSAVLAMFGYFLVRKYAPEAGGSGIPEIQGALEDQRPVRWWRVLPVKFFGGLGTLGGGMVLGRQGPTVQIGGNIGRMVLDIFRLKGDEARHTLLATGAAAGLAAAFNAPLAGILFIIEQMRPQFRYTLISIKAVFIGVIMSTIMYRIFNHEVALIDVGKLSDAPLNTLWLYLILGIIFGIFGPIFNKWVLGMQDLLHRVHGGNITKWVLMGGAIGGLCGLLGFVAPATSGGGFNLIPIATAGNFSMGMLVFIFVARVITTLLCFSSGAPGGIFAPMLALGTVLGTAFGMVAVELFPQYHLEAGTFAIAGMGALLAASIRAPLTGIILVLEMTDNYQLILPMIITGLGATLLAQFTGGKPLYSAILARTLAKQEAEQLARSKAAS	–	binds
D417C/QQQ CLC-ec1 (cysteine-less background), spin-labeled (natural protein, E. coli, MTSSL spin label on the substituted cysteine at 417, CLC-ec1, prokaryotic (E. coli) CLC Cl-/H+ exchange transporter, from plasmid pASK-CLC-ec1; Helix P; source: purified under reducing conditions, then labeled with MTSSL) MKTDTPSLETPQAARLRRRQLIRQLLERDKTPLAILFMAAVVGTLVGLAAVAFDKGVAWLQNQRMGALVHTADNYPLLLTVAFLASAVLAMFGYFLVRKYAPEAGGSGIPEIQGALEDQRPVRWWRVLPVKFFGGLGTLGGGMVLGRQGPTVQIGGNIGRMVLDIFRLKGDEARHTLLATGAAAGLAAAFNAPLAGILFIIEQMRPQFRYTLISIKAVFIGVIMSTIMYRIFNHEVALIDVGKLSDAPLNTLWLYLILGIIFGIFGPIFNKWVLGMQDLLHRVHGGNITKWVLMGGAIGGLAGLLGFVAPATSGGGFNLIPIATAGNFSMGMLVFIFVARVITTLLSFSSGAPGGIFAPMLALGTVLGTAFGMVAVELFPQYHLEAGTFAIAGMGALLAASIRAPLTGIILVLEMTCNYQLILPMIITGLGATLLAQFTGGKPLYSAILARTLAKQEAEQLARSKAAS	binds	–
